From patent US20240247080A1, “GLP1/GIP/NPY2 RECEPTOR TRIPLE AGONISTS” (Boehringer Ingelheim International GmbH, priority 2022, published 2024)
Positions count from the first letter of the chain named. Starred links: 1 amine or outer side, 2 acyl side, 3 side chain; linkers in the order of their positions; H or OH if unused. Non-standard residues stand in square brackets, D forms with d. Groups on a side chain read outwards from the residue. No end group written: not given here. *: point of attachment. C20 diacid = O=C(O)CCCCCCCCCCCCCCCCCCC(=O)*; γGlu = O=C(O)[C@H](CCC(=O)[*:2])N[*:1]; εLys = N[C@@H](CCCCN[*:1])C(=O)[*:2]; Aib = CC(C)(N)C(=O)O

T1: human GIP receptor (human, UniProt P48546 22-466)
T1 sequence (looked up): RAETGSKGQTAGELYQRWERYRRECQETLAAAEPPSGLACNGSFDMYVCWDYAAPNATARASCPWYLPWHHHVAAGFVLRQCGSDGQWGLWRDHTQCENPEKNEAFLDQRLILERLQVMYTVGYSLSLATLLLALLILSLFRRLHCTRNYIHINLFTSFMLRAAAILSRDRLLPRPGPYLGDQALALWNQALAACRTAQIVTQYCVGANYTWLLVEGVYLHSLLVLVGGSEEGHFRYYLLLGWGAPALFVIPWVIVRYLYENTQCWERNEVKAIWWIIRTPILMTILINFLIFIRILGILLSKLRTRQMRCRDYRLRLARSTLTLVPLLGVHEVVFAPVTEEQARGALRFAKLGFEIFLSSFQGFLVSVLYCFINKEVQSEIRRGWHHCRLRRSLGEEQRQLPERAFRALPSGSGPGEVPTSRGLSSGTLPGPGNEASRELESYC

T2: human neuropeptide Y2 (NPY2) receptor (human, UniProt P49146 1-381)
T2 sequence (looked up): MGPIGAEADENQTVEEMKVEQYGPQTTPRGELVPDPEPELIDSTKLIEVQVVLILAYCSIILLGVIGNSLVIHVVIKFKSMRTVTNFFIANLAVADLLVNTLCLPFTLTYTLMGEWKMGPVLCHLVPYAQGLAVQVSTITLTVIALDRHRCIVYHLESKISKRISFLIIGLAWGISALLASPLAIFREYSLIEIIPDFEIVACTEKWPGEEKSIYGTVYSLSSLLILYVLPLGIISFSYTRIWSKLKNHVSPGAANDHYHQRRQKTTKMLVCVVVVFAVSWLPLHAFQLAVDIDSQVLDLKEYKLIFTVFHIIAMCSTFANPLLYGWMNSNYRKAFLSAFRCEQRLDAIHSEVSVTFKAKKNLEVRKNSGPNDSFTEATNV

B1: Compound 20 (peptide)
peptide: YXEGTFTSDYSIXLAAAAQXAFVEWLIKGGPSSGASLRHYYNWLTRQRY
modifications: Aib at 2, 13, 20; K28 side chain: C20DA-gGlu-gGlu-gGlu-gGlu-gGlu-gGlu-eLys; C-terminal NH2
B2: Compound 21 (peptide)
peptide: B1 peptide with A15E, A16K, A17Q
modifications: Aib at 2, 13, 20; DHis 39; DArg 46; DTyr 49; K28 side chain: C20DA-gGlu-gGlu-gGlu-gGlu-gGlu-gGlu-eLys; C-terminal NH2
B3: Compound 22 (peptide)
peptide: B1 peptide with A15E, A16K, A17Q, E24Q, P31Q, G34Y
modifications: Aib at 2, 13, 20; K28 side chain: C20DA-gGlu-gGlu-gGlu-gGlu-gGlu-Glu-eLys; C-terminal NH2
B4: Compound 23 (peptide)
peptide: Y[Aib]EGTFTSDYSI[Aib]LEKQAQ[Aib]AFVQWLIK([εLys-Glu-γGlu-γGlu-γGlu-γGlu-C20 diacid])GGPEYYASLRHYYNWLTRQRY-NH2
modifications: also: TFA salt
B5: Compound 24 (peptide)
peptide: B1 peptide with A15E, A16X, A17K, A21E
modifications: Aib at 2, 13, 16, 20; K28 side chain: C20DA-gGlu-gGlu-gGlu-gGlu-gGlu-gGlu-eLys; C-terminal NH2
B6: Compound 25 (peptide)
peptide: B1 peptide with A15E, A18K
modifications: Aib at 2, 13, 20; K28 side chain: C20DA-gGlu-gGlu-gGlu-gGlu-gGlu-gGlu-eLys; C-terminal NH2
B7: Compound 26 (peptide)
peptide: B1 peptide with A15E, A16K, A17Q, L37X, R46X
modifications: Aib at 2, 13, 20, 37; hArg 46; DTyr 49; K28 side chain: C20DA-gGlu-gGlu-gGlu-gGlu-gGlu-gGlu-eLys; C-terminal NH2
B8: Compound 27 (peptide)
peptide: B1 peptide with A15E, A16K, A17Q, A35V, L37I
modifications: Aib at 2, 13, 20; K28 side chain: C20DA-gGlu-gGlu-gGlu-gGlu-gGlu-gGlu-eLys; C-terminal NH2
B9: Compound 4 (peptide)
peptide: YXEGTFTSDYSIXLEKQAQXAFVEWLIKGGPSSGASXRHYXNRXTRQRY
modifications: Aib at 2, 13, 20, 37, 41, 44; K28 side chain: C20DA-gGlu-gGlu-gGlu-gGlu-gGlu-gGlu-eLys; C-terminal NH2
B10: Compound 28 (peptide)
peptide: Y[Aib]EGTFTSDYSI[Aib]LEKQAQ[Aib]EFVQWLIKGGPSSGASLRHYYNWLTRQRY-NH2
modifications: not fully specified (residue 28); also: TFA salt
B11: Compound 29 (peptide)
peptide: B1 peptide with A15E, A16K, A17Q, E24Q, S32E
modifications: Aib at 2, 13, 20; K28 side chain: C20DA-gGlu-gGlu-gGlu-gGlu-gGlu; C-terminal NH2
B12: Compound 30 (peptide)
peptide: B1 peptide with A15E, A16E, A17Q, E24Q
modifications: Aib at 2, 13, 20; K28 side chain: C20DA-gGlu-gGlu-Glu-gGlu-gGlu-gGlu-eLys; C-terminal NH2
B13: Compound 31 (peptide)
peptide: B1 peptide with A15E, A16E, A17Q, A35Q
modifications: Aib at 2, 13, 20; K28 side chain: C20DA-gGlu-gGlu-gGlu-gGlu-gGlu-gGlu-eLys; C-terminal NH2
B14: Compound 32 (peptide)
peptide: B1 peptide with A15E, A16K, A17Q, E24Q, S32E
modifications: Aib at 2, 13, 20; K28 side chain: C20DA-gGlu-gGlu-gGlu-gGlu-gGlu-OEG-OEG; C-terminal NH2
B15: Compound 33 (peptide)
peptide: B1 peptide with A15E, A16K, A17Q, G34A, A35V
modifications: Aib at 2, 13, 20; K28 side chain: C20DA-gGlu-gGlu-gGlu-gGlu-gGlu-gGlu-eLys; C-terminal NH2
B16: Compound 34 (peptide)
peptide: Y[Aib]EGTFTSDYSI[Aib]LEEQAQ[Aib]AFVQWLIK([εLys-γGlu-γGlu-γGlu-γGlu-γGlu-C20 diacid])GGPSSGASLRHYYNWLTRQRY-NH2
modifications: also: TFA salt
B17: Compound 35 (peptide)
peptide: B1 peptide with A15E, A16K, A17Q, E24Q, A35E
modifications: Aib at 2, 13, 20; K28 side chain: C20DA-gGlu-gGlu-gGlu-gGlu-gGlu-gGlu-eK; C-terminal NH2
B18: Compound 36 (peptide)
peptide: B1 peptide with A15E, A16K, A17Q, A21E, E24Q
modifications: Aib at 2, 13, 20; K28 side chain: C20DA-gGlu-gGlu-gGlu-gGlu-gGlu-OEG-OEG; C-terminal NH2
B19: Compound 37 (peptide)
peptide: B1 peptide with A15E, A16K, A17Q, E24Q, S32E
modifications: Aib at 2, 13, 20; K28 side chain: C20DA-gGlu-gGlu-gGlu-gGlu-gGlu-gGlu-eLys; C-terminal NH2
B20: Compound 5 (peptide)
peptide: B1 peptide with A15E, A16K, A17Q
modifications: Aib at 2, 13, 20; DLeu 37; DHis 39; DArg 46; DTyr 49; K28 side chain: C20DA-gGlu-gGlu-gGlu-gGlu-gGlu-gGlu-eLys; C-terminal NH2
B21: Compound 38 (peptide)
peptide: B9 peptide with A35V, X41Y, R43W, X44L
modifications: Aib at 2, 13, 20, 37; K28 side chain: C20DA-gGlu-gGlu-gGlu-gGlu-gGlu-gGlu-eLys; C-terminal NH2
B22: Compound 39 (peptide)
peptide: B9 peptide with X41Y, R43W, X44L
modifications: Aib at 2, 13, 20, 37; NMeR 48; K28 side chain: C20DA-gGlu-gGlu-gGlu-gGlu-gGlu-gGlu-eLys; C-terminal NH2
B23: Compound 40 (peptide)
peptide: B1 peptide with A15E, A16K, A17Q, G34Y, A35V
modifications: Aib at 2, 13, 20; K28 side chain: C20DA-gGlu-gGlu-gGlu-gGlu-gGlu-gGlu-eLys; C-terminal NH2
B24: Compound 41 (peptide)
peptide: B1 peptide with A15E, A16K, A17Q, G34P, A35Q
modifications: Aib at 2, 13, 20; K28 side chain: C20DA-gGlu-gGlu-gGlu-gGlu-gGlu-gGlu-eLys; C-terminal NH2

Legend:
Experiment in all cases: cell-based or functional assay
human GIP receptor = target: T1, human GIP receptor
[1] = target: T2, human neuropeptide Y2 (NPY2) receptor
human GLP-1 receptor = human GLP-1 receptor (human, UniProt P43220 24-463)

Binder | EC50, CreLuc assay, 0.5% hP (human GIP receptor) | EC50, CreLuc assay, 100% hP (human GIP receptor) | EC50, CreLuc assay, 0.5% hP [1] | EC50, CreLuc assay, 100% hP [1] | EC50, CreLuc assay, 0.5% hP (human GLP-1 receptor) | EC50, CreLuc assay, 100% hP (human GLP-1 receptor)
B1 | 0.93 nM | 7.75 nM | 19.1 nM | 62 nM | 0.87 nM | 24.3 nM
B2 | 0.14 nM | 0.87 nM | > 99.9 nM | > 999 nM | 0.11 nM | 1.66 nM
B3 | 0.54 nM | 6.62 nM | 8.06 nM | 21.3 nM | 0.45 nM | 15.9 nM
B4 | 0.56 nM | 11.4 nM | 10.1 nM | 72.4 nM | 0.47 nM | 37.7 nM
B5 | 4.1 nM | 17.7 nM | 26.8 nM | 94.5 nM | 1.77 nM | 15.3 nM
B6 | 0.98 nM | 6.97 nM | 13 nM | 38.3 nM | 0.67 nM | 14.2 nM
B7 | 0.09 nM | 0.7 nM | > 100 nM | 670 nM | 0.07 nM | 1.18 nM
B8 | 0.17 nM | 1.11 nM | 7.16 nM | 21 nM | 0.1 nM | 1.97 nM
B9 | 0.25 nM | 1.66 nM | 66.4 nM | 182 nM | 0.09 nM | 1.74 nM
B10 | 0.38 nM | 3.08 nM | 10.3 nM | 46 nM | 0.22 nM | 6.51 nM
B11 | 0.23 nM | 4.08 nM | 8.79 nM | 74.5 nM | 0.13 nM | 6.74 nM
B12 | 0.13 nM | 1.06 nM | 13.3 nM | 56.2 nM | 0.08 nM | 1.08 nM
B13 | 0.15 nM | 2.63 nM | 13.4 nM | 43.5 nM | 0.06 nM | 2.94 nM
B14 | 0.16 nM | 1.15 nM | 12.2 nM | 49.3 nM | 0.07 nM | 4.74 nM
B15 | 0.25 nM | 1.51 nM | 9.93 nM | 26.7 nM | 0.14 nM | 3.17 nM
B16 | 0.13 nM | 1.61 nM | 14.6 nM | 66.7 nM | 0.09 nM | 1.39 nM
B17 | 0.06 nM | 0.96 nM | 11.6 nM | 29.3 nM | 0.07 nM | 1.3 nM
B18 | 0.26 nM | 1.57 nM | 8.03 nM | 26.8 nM | 0.28 nM | 7.78 nM
B19 | 0.24 nM | 1.44 nM | 9.53 nM | 35.5 nM | 0.11 nM | 5.13 nM
B20 | 0.17 nM | 1.07 nM | > 99.9 nM | > 999 nM | 0.11 nM | 1.43 nM
B21 | 0.04 nM | 0.7 nM | 6.9 nM | 17.8 nM | 0.06 nM | 1.28 nM
B22 | 0.06 nM | 0.4 nM | 26.9 nM | 61.5 nM | 0.09 nM | 0.82 nM
B23 | 0.48 nM | 4.36 nM | 11.9 nM | 26.4 nM | 0.46 nM | 9.04 nM
B24 | 0.07 nM | 0.62 nM | 10.2 nM | 34.6 nM | 0.06 nM | 1.47 nM
